The data set in a line: label from the status in PepcDB records.
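Note: failed if final PepcDB status was selected cloned or expressed and not failed if soluble or beyond.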

“PGAAPGLFALESAIDEMALASGMDPLAFRKLNLSDKDQSVGLPWSSNHLPEAIDKAAERFGWQARKAAVGSMREGDEIIGYGMGACNWEAHQVPTDARVVLRSDGTALAQCGLQDIGTGTYTIVAQTVSELTGIPIERVEVELGSSSFPPGPVSGGSWVTASVMPAIAGATREALQKLRQYAISKDAVFAGQDPESIKVENGQLVMGEQRASFVDVLKGQRLSRAEGNFQSGMPEAGKYSFRSFGVHFVEVRWDPGISSLRVSRVVSAIDVGKVINPLAARNQVEGAIVMGIGMALFEAGEYDPRSGMPVNNNYAEYVVPVHADQPDIDVMLLDYPDYNLGEFGARGIGEIGVTGLAAAVANAVYHATGKRVRSLPITKEKLMAGL”: the protein production entry was “failed”.

As for “PGAPSTVRISKNVDGIHLSWEPPTSPSGNILEYSAYLAIRTAQMQDNPSQLVFMRIYCGLKTSCTVTAGQLANAHIDYTSRPAIVFRISAKNEKGYGPATQIRWLQGNSK”, the protein production entry is given as “not failed”.

In the case of “PGFIDMHAHSELRLFENPGAREKLTQGITTEVLGQDGVSVAPVPPNLTDEWAERVKSLDGTLGETWPWHTVSGYLEALESVEPAVNCAYYAPHGNIRSMLAGFEDRPLSGEHVVAAGPVTGQRLDRPKSDHDTAPGELDAIRQELEVALEEGAFGMSKGMIYPPSSYARDDELVALADTLAKRDSFMISHVWNETDRVVESIDRYLDICRRGGCHAHVSHLKVGGQQNWGDSEAVLDLFDDAVDRGQRVTFDQYPYTAGSTMLTALLPPWARQGDSEAIRHRLNSAAVRDRIAADISQPGDWENLAYAAGSWDNILITRTGSGRYQGDTIADIAAEMDREPVDAMCELLVAEELDVTMADFVMAETDIERFLADDRGTFCTDGIFGGKPHPRAIGAFSRILERYVRERNVLSPELLAYKAAGNPADILG”, the protein production result is given as “failed”.

As to “PGLRELCIQKAPGERLGISIRGGARGHAGNPRDPTDEGIFISKVSPTGAAGRDGRLRVGLRLLEVNQQSLLGLTHGEAVQLLRSVGDTLTVLVCDGFE”, the protein production result is “not failed”.

Turning to “PGLVDVHTHFMPERVLRKVWDYFDGLGPLTGGLEWPITYRSDEDQRLATIREFGVRAFTAMLYPHKAGMARWLNSWAVDFARRTPDCLHTATLFPEPGVEAYVLEAVEQGARVFKAHVQVGAYDPADELLDPVWGLLAEAGVPVVMHCGSGPAPGKHTGPGPVAQVLARHPRLRLVVAHLGMPEYEDFLDLAERYGEVRLDTTMAFTDFSERLAPFPRGARPRLAGLGDRILLGTDFPNIPYRYVDQLYALERLGLGDDWLRSVCHGNGARLFGL”, the protein production entry is recorded as “failed”.

In the case of “PGYTLTRELPLTEYRALYRAAEDTWAARLDWSPEQYDAHFAREDVRLLALRDSEGRPVAFAELELCAPDSRAELTHLAVHPAQRGQGLGRALLALAAAEAAQSPEIRTLRARAHDHMSAARQLYARAGLSHCRAVVTSLREG”, the protein production entry was “failed”.

In the case of “PHSMEPQVTLNVTFKNEIQSFLVSDPENTTWADIEAMVKVSFDLNTIQIKYLDEENEEVSINSQGEYEEALKMAVKQGNQLQMQVHEG”, the protein production entry is given as “not failed”.

As for “PKRTAATAGALMIGVAVVSLFTVFGASLKATMDQTVSRSFAGDVAVSAPSFGAGGSGLSPRLAGAIQELPEVDTAVGLGRGVAEVDGQGRALTVTDPAALNRTFDLGAVHGSLDDLGTDGIAITENEADERGLTTGDTTRLTFTDGHSGTFTVRAVYGQSELAGDYVITRAAWAPHRTQDSDTLVAVAFEDGVGADAGKAAVEKVADRYGNPEVQTREEYAESSAGGIDMMLTLVYALLALAVLIALLGISNTLTLAVHERTRELGLLRAVGQTRAQLRAMVRWESVLVAAFGTVGGLGLGAFLGWVLVAASDGASDSAFAFAVPPAQLAVVALVGLAAGALAGVRPARRASRLDVLRAVAT”, the protein production result was “failed”.

Turning to “PLLIFPPWINKFYIMDLRPENSMIRWLTAQGFTVFVASWVNPDQTLAAKTFEDYMVEGIYDAAQQVMTQCGVDRVNTVGYCIGGTLLSVALAHMAARGDKRINSATFFAAQQDFAEAGDLLLFTNEEWLQSIEQQMDQAGGFLPSQSMADTFNALRGNDLIWSFFVSNYLMGKEPRPFDLLFWNADQTRMPKALHLFYLRNFYKDNALTTGKLSLGGERLDLSKVKIPIYVQSSKDDHIAPYRSVYRGARAFGGPVTFTMAGSGHI”, the protein production entry was “failed”.

Consider “PMNGKEKAASYDKVVDVDVKLGQVSVKNPKGTAHEMPKTFTFDAVYDWNAKQFELYDETFRPLVDSVLQGFNGTIFAYGQTGTGKTYTMEGIRGDPEKRGVIPNSFDHIFTHISRSQNQQYLVRASYLEIYQEEIRDLLSKDQTKRLELKERPDTGVYVKDLSSFVTKSVKEIEHVMNVGNQNRSVGATNMNEHSSRSHAIFVITIECSEVGLDGENHIRVGKLNLVDLAGSERQAKTGAQGERLKEATKINLSLSALGNVISALVDGKSTHIPYRDSKLTRLLQDSLGGNAKTVMVANVGPASYNVEETLTTLRYANRAKNIKNKPRVNEDPKDAL”, for which the protein production entry is “failed”.

For the sequence “PNVVKMNKPFISLCPEITRAHALTLMDWLEDEHVTRHLSDSRHVSRFIEQVIDRVQLPVLTHLFNQGGRFFMAYDRHDVPVGFVRLVKTGSDCEIVLVIGNRDNWGRKLGASAIREGMKLAFFEMRAARLIAKVHPDNERSLNAFLRCGFVLE”, the protein production result was “not failed”.

As to “PPHYDYAIGIRGDSMLPKYEQGDMLYIVDKGMSTYSGQLCIVVHNGNTYFKKVYTEHDGLRLVSLNKKYSDIFIGYPPAEDTYIKIYDVVGSFTPIEF”, the protein production entry is on record as “failed”.

For “PPSTLIGPGDDAALVRADDGRVAVSADMLVQDRHFRLDWSSPRDVGRKAVAQNAADVAAMGARPTAFLVSLGLPPDTSIDVADGISAAIGESAEELGAGVVGGDLVQAGQVVISVTVLGDLGGRS”, the protein production entry is “failed”.

Consider “PQAMIIDVVADVVCPWCYLGWRRLKSAIALRPDLKAQLIWRPYQLDPTLPEDGVDRKAYMAQKFKDPEKLKAVHTALVEGGAEEGIVFNFEAIALSPNTNAAHRLIRWALTAGVQDHVVEALFKAYFEQGLDIGDPIVLGDIAEAAGMERLVVLQLLSEGADKEAVAREHAMAVQGGVTGVPFAIFAGKVAVVGAESPERIAQAIDQALAA”, for which the protein production entry is “failed”.

Regarding “PREPVVNDEMCDVCEVWTAESLFPCRVCTRVFHDGCLRRMGYIQGDSAAEVTEMAHTETGWSCHYCDNINLLLTEE”, the protein production result is recorded as “not failed”.

Take “PRKASRKPPREESSATCVLEQPGALGAQILLVQRPNSGLLAGLWEFPSVTWEPSEQLQRKALLQELQRWAGPLPATHLRHLGEVVHTFSHIKLTYQVYGLALEGQTPVTTVPPGARWLTQEEFHTAAVSTAMKKVFRVYQGQ”: the protein production result was “not failed”.

For “PRMIVFGAIDFASALARAGKFLGHHVTVCDARPVFATPARFPDADEVVVEWPHEYLARTAVDARTVLCVLTHDAKFDIPLLRLALRLPVAYVGAMGSRRTHLDRAARLREAGV”, the protein production result is “failed”.

“PSLPGIEAAARYLPATQGMEIGGDFYDLVATVGRAAAVIGDVQGHNVTAAGLMGQIRTAVRAYTTVGQAPGQVMRSTNRLMIDLGTDLFASCVYLRLDPARQRVVMARAGHPPPLLRKPDGQVRVLDLAGGPLLGIDADATYTTTEFALAPGSVLALYTDGLIESPGIDIEDALAELGERLAESGDEPLDELADRLVRHTATAEERLDDIALLLLRARA”: the protein production result is “failed”.

“PSMPASPVLTKAGITWLSLQWSKPSGTPSDEGISYILEMEEETSGYGFKPKYDGEDLAYTVKNLRRSTKYKFKVIAYNSEGKSNPSEVVEFTTCPD”: the protein production entry was “not failed”.

For “PTRQVLQGSRCRLEPLTLAHASDLFAAHQLAPDARSWTWLLREPESNLAEFSAWVEQVATLADPIHFAVVDQQRGKAVGSLALMRIDIAHGVVEVGHVHFSPLLSRTAMATEAHWLLMQYVFDTLGYRRYEWKCNSLNIPSARAARRLGFQYEGRFRQALVSKGHNRDTDWFSVIDGEWPELD”, the protein production result is on record as “failed”.

As to “PTSSTTAALVMGDALAVALLEARGFTAEDFALSHPGGALGRKLLLRVNDIMHTGDEIPHVGLQATLRDALLEITRKNLGMTAICDDDMNIIGIFTDGDLRRVFDTGVDMRDASIADVMTRGGIRIRPGTLAVDALNLMQSRHITCVLVADGDHLLGVVHMHDLLRA”, the protein production entry is on record as “not failed”.

Regarding “PTSSTTATLVMGDALAVALLKARGFTAEDFALSHPGGALGRKLLLRVSDIMHTGDEIPHVNKHATLRDALLEITRKNLGMTVICDESMKIDGIFTDGDLRRVFDMGGDMRQLGIAEVMTPGGIRVRPGILAVDALNLMQSRHITSVLVADGDQLLGVLHMHDLLRA”, the protein production result is on record as “failed”.

Regarding “PVLTQTSEQAPSSAPRDVQARMLSSTTILVQWKEPEEPNGQIQGYRVYYTMDPTQHVNNWMKHNVADSQITTIGNLVPQKTYSVKVLAFTSIGDGPLSSDIQVITQTG”, the protein production result is given as “not failed”.

Take “PVTQVMTPRPVVFRVDATMTINEFLDKHKDTPFSRPLVYSEQKDNIIGFVHRLELFKMQQSGSGQKQLGAVMRPIQVVLNNTALPKVFDQMMTHRLQLALVVDEYGTVLGLVTLEDIFEHLVGE”: the protein production entry is given as “not failed”.

“PVVVAVGAHREAAAVVDTAARLARDTASPLEVVHVRRTAVVEEQAADTETDEQAKAAVTAHLDRLGGMGVTATGQILTGVGDHAAAGRALARHAAEVGARTVAVGRSPRGPLAQFADGSFTSALTHAATCTVVLVDPNAEPR”: the protein production result was “failed”.

Turning to “QAELMTLTIVKGAQGFGFTIADSPTGQRVKQILDIQGCPGLCEGDLIVEINQQNVQNLSHTEVVDILKDCPIGSETSLIIHRG”, the protein production entry was “not failed”.

On to “QDWLTFQKKHITNTRDVDCDNIMSTNLFHCKDKNTFIYSRPEPVKAICKGIIASKNVLTTSEFYLSDCNVTSRPCKYKLKKSTNKFCVTCENQAPVHFVGVGSC”, for which the protein production entry is “not failed”.

In the case of “QGHLVHMTVVSGSNVTLNISESLPENYKQLTWFYTFDQKIVEWDSRKSKYFESKFKGRVRLDPQSGALYISKVQKEDNSTYIMRVLKKTGNEQEWKIKLQVLDPVPKPVIKIEK”, the protein production entry is on record as “not failed”.

With “QHDSSRKLGLLQEMIGGGWWRYWAEQELFELAPALHDSLGLTGEYRRVPLEHLQGLLQPADADELGLRLRASLRSGQALAQDLCLRQPDSRGERRWLRIEGRPLGRGSALGLSGVLLDISEGRRQEER”, the protein production result is on record as “failed”.

On to “QHTEERELKKRLMNTARTVSEMTEVKEALARKKQTEAVRHAVEEIRMINEADYIVVMDMNHIRYTHPVSTSIGKKSEGADEEAAFAEHIYFSEAKGEIGTAVRAFYPVKDQDLNQIGVVLVGKTLPGIADILLHLKRD”, for which the protein production result was “not failed”.

Take “QKDANASSEFYINKLGQTQELEDQQTYKLLAARVLIRENKVEQSAALLRELGELNDAQKLDRALIEARISAAKNANEVAQNQLRALDLNKLSPSQKSRYYETLAIVAENRKDMIEAVKARIEMDKNLTDVQRHQDNIDKTWALLRSANTGVINNASDEGNAALGGWLTLIKAYNDYIRQPVQLSQALQSWKNAYPNHAAATLFPKELLTLLNFQQTNVSQIGLLLPLSGDGQILGTTIQSGFNDAKGNSTIPVQVFDTSMNSVQDIIAQAKQAGIKTLVGPLLKQNLDVILADPAQIQGMDVLALNATPNSRAIPQLCYYGLSPEDEAESAANKMWNDGVRNPLVAMPQNDLGQRVGNAFNVRWQQLAGTDANIRYYNLPADVTYFVQENNSNTTALYAVASPTELAEMKGYLTNIVPNLAIYASSRASASATNTNTDFIAQMNGVQFSDIPFFKDTNSPQYQKLAKSTGGEYQLMRLYAMGADAWLLINQFNELRQVPGYRLSGLTGILSADTNCNVERDMTWYQYQDGAIVPVAN”: the protein production entry is listed as “failed”.

Source of the values: a protein production outcome set (Wang et al. 2014).
